B1: 1.34.35-1 (antibody, human IgG1, kappa, V domains shown)
VH: QVQLVQSGAEVKKPGASVRVSCKASGYNIRDYFIHWWRQAPGQGLQWVGWINPKTGQPNNPRQFQGRVTLTRHASWDFDTFSFYMDLKALRSDDTAVYFCARQRTDYWDFDVWGSGTQVTVSS
VL: DIQMTQSPSSLSASVGDRVTITCQANGYLNWYQQKPGKAPKLLIYDGSNLETGVPSRFSGSRWGQEYTLTISSLQPEDIATYFCQVYEFVGPGTNLDIKR
B2: 1.36.35-1 (antibody, human IgG1, kappa, V domains shown)
VH: QVQLVQSGAEVKKPGASVRVSCKASGYNIRDYFMHWWRQAPGQGLQWVGWINPKTGQPNNPRQFQGRVTMTRHASWDFDTFSAYMDLSRLRSDDTATYFCARQRTDYWDFDVWGQGTMVTVSS
VL: DIQMTQSPSSLSASVGDRVTITCQANGYLNWYQQKPGKAPKLLIYDGSNLETGVPSRFSGSRWGQEYTLTISSLQPEDIATYFCQVYEFVGPGTNLDIKR
B3: 1.35.35-1 (antibody, human IgG1, kappa, V domains shown)
VH: QVQLVQSGAEVKKPGASVRVSCKASGYNIRDYFMHWWRQAPGQGLQWVGWINPKTGQPNNPRQFQGRVTMTRHASWDFDTFSFYMDLSRLRSDDTATYFCARQRTDYWDFDVWGQGTMVTVSS
VL: DIQMTQSPSSLSASVGDRVTITCQANGYLNWYQQKPGKAPKLLIYDGSNLETGVPSRFSGSRWGQEYTLTISSLQPEDIATYFCQVYEFVGPGTNLDIKR
B4: 1.1.36-1 (antibody, human IgG1, kappa)
heavy: QVQLLQSGAAVTKPGASVRVSCEASGYNIRDYFIHWWRQAPGQGLQWVGWINPKTGQPNNPRQFQGRVSLTRHASWDFDTFSFYMDLKALRSDDTAVYFCARQRSDYWDFDVWGSGTQVTVSSASTKGPSVFPLAPSSKSTSGGTAALGCLVKDYFPEPVTVSWNSGALTSGVHTFPAVLQSSGLYSLSSVVTVPSSSLGTQTYICNVNHKPSNTKVDKKVEPKSCDKTHTCPPCPAPELLAGPDVFLFPPKPKDTLMISRTPEVTCVVVDVSHEDPEVKFNWYVDGVEVHNAKTKPREEQYNSTYRVVSVLTVLHQDWLNGKEYKCKVSNKALPLPEEKTISKAKGQPREPQVYTLPPSREEMTKNQVSLTCLVKGFYPSDIAVEWESNGQPENNYKTTPPVLDSDGSFFLYSKLTVDKSRWQQGNVFSCSVLHEALHSHYTQKSLSLSPGK
light: DIQMTQSPSSLSASVGDRVTITCQANGYLNWYQQKPGKAPKLLIYDGSNLETGVPSRFSGSRWGQEYTLTISSLQPEDIATYFCQVYEFVTPGTNLDIKRTVAAPSVFIFPPSDEQLKSGTASVVCLLNNFYPREAKVQWKVDNALQSGNSQESVTEQDSKDSTYSLSSTLTLSKADYEKHKVYACEVTHQGLSSPVTKSFNRGEC
B5: 1.35.36-1 (antibody, human IgG1, kappa)
heavy: QVQLVQSGAEVKKPGASVRVSCKASGYNIRDYFMHWWRQAPGQGLQWVGWINPKTGQPNNPRQFQGRVTMTRHASWDFDTFSFYMDLSRLRSDDTATYFCARQRTDYWDFDVWGQGTMVTVSSASTKGPSVFPLAPSSKSTSGGTAALGCLVKDYFPEPVTVSWNSGALTSGVHTFPAVLQSSGLYSLSSVVTVPSSSLGTQTYICNVNHKPSNTKVDKKVEPKSCDKTHTCPPCPAPELLAGPDVFLFPPKPKDTLMISRTPEVTCVVVDVSHEDPEVKFNWYVDGVEVHNAKTKPREEQYNSTYRVVSVLTVLHQDWLNGKEYKCKVSNKALPLPEEKTISKAKGQPREPQVYTLPPSREEMTKNQVSLTCLVKGFYPSDIAVEWESNGQPENNYKTTPPVLDSDGSFFLYSKLTVDKSRWQQGNVFSCSVLHEALHSHYTQKSLSLSPGK
light: DIQMTQSPSSLSASVGDRVTITCQANGYLNWYQQKPGKAPKLLIYDGSNLETGVPSRFSGSRWGQEYTLTISSLQPEDIATYFCQVYEFVTPGTNLDIKRTVAAPSVFIFPPSDEQLKSGTASVVCLLNNFYPREAKVQWKVDNALQSGNSQESVTEQDSKDSTYSLSSTLTLSKADYEKHKVYACEVTHQGLSSPVTKSFNRGEC
B6: 1.33.36-1 (antibody, human IgG1, kappa)
heavy: QVQLVQSGAEVKKPGASVRVSCKASGYNIRDYFIHWWRQAPGQGLQWVGWINPKTGQPNNPRQFQGRVTLTRHASWDFDTFSFYMDLKALRSDDTATYFCARQRSDYWDFDVWGSGTQVTVSSASTKGPSVFPLAPSSKSTSGGTAALGCLVKDYFPEPVTVSWNSGALTSGVHTFPAVLQSSGLYSLSSVVTVPSSSLGTQTYICNVNHKPSNTKVDKKVEPKSCDKTHTCPPCPAPELLAGPDVFLFPPKPKDTLMISRTPEVTCVVVDVSHEDPEVKFNWYVDGVEVHNAKTKPREEQYNSTYRVVSVLTVLHQDWLNGKEYKCKVSNKALPLPEEKTISKAKGQPREPQVYTLPPSREEMTKNQVSLTCLVKGFYPSDIAVEWESNGQPENNYKTTPPVLDSDGSFFLYSKLTVDKSRWQQGNVFSCSVLHEALHSHYTQKSLSLSPGK
light: DIQMTQSPSSLSASVGDRVTITCQANGYLNWYQQKPGKAPKLLIYDGSNLETGVPSRFSGSRWGQEYTLTISSLQPEDIATYFCQVYEFVTPGTNLDIKRTVAAPSVFIFPPSDEQLKSGTASVVCLLNNFYPREAKVQWKVDNALQSGNSQESVTEQDSKDSTYSLSSTLTLSKADYEKHKVYACEVTHQGLSSPVTKSFNRGEC
B7: 1.34.36-1 (antibody, human IgG1, kappa)
heavy: QVQLVQSGAEVKKPGASVRVSCKASGYNIRDYFIHWWRQAPGQGLQWVGWINPKTGQPNNPRQFQGRVTLTRHASWDFDTFSFYMDLKALRSDDTAVYFCARQRTDYWDFDVWGSGTQVTVSSASTKGPSVFPLAPSSKSTSGGTAALGCLVKDYFPEPVTVSWNSGALTSGVHTFPAVLQSSGLYSLSSVVTVPSSSLGTQTYICNVNHKPSNTKVDKKVEPKSCDKTHTCPPCPAPELLAGPDVFLFPPKPKDTLMISRTPEVTCVVVDVSHEDPEVKFNWYVDGVEVHNAKTKPREEQYNSTYRVVSVLTVLHQDWLNGKEYKCKVSNKALPLPEEKTISKAKGQPREPQVYTLPPSREEMTKNQVSLTCLVKGFYPSDIAVEWESNGQPENNYKTTPPVLDSDGSFFLYSKLTVDKSRWQQGNVFSCSVLHEALHSHYTQKSLSLSPGK
light: DIQMTQSPSSLSASVGDRVTITCQANGYLNWYQQKPGKAPKLLIYDGSNLETGVPSRFSGSRWGQEYTLTISSLQPEDIATYFCQVYEFVTPGTNLDIKRTVAAPSVFIFPPSDEQLKSGTASVVCLLNNFYPREAKVQWKVDNALQSGNSQESVTEQDSKDSTYSLSSTLTLSKADYEKHKVYACEVTHQGLSSPVTKSFNRGEC
B8: 1.36.36-1 (antibody, human IgG1, kappa)
heavy: QVQLVQSGAEVKKPGASVRVSCKASGYNIRDYFMHWWRQAPGQGLQWVGWINPKTGQPNNPRQFQGRVTMTRHASWDFDTFSAYMDLSRLRSDDTATYFCARQRTDYWDFDVWGQGTMVTVSSASTKGPSVFPLAPSSKSTSGGTAALGCLVKDYFPEPVTVSWNSGALTSGVHTFPAVLQSSGLYSLSSVVTVPSSSLGTQTYICNVNHKPSNTKVDKKVEPKSCDKTHTCPPCPAPELLAGPDVFLFPPKPKDTLMISRTPEVTCVVVDVSHEDPEVKFNWYVDGVEVHNAKTKPREEQYNSTYRVVSVLTVLHQDWLNGKEYKCKVSNKALPLPEEKTISKAKGQPREPQVYTLPPSREEMTKNQVSLTCLVKGFYPSDIAVEWESNGQPENNYKTTPPVLDSDGSFFLYSKLTVDKSRWQQGNVFSCSVLHEALHSHYTQKSLSLSPGK
light: DIQMTQSPSSLSASVGDRVTITCQANGYLNWYQQKPGKAPKLLIYDGSNLETGVPSRFSGSRWGQEYTLTISSLQPEDIATYFCQVYEFVTPGTNLDIKRTVAAPSVFIFPPSDEQLKSGTASVVCLLNNFYPREAKVQWKVDNALQSGNSQESVTEQDSKDSTYSLSSTLTLSKADYEKHKVYACEVTHQGLSSPVTKSFNRGEC
B9: 1.31.36-1 (antibody, human IgG1, kappa)
heavy: QVQLVQSGAEVTKPGASVRVSCEASGYNIRDYFIHWWRQAPGQGLQWVGWINPKTGQPNNPRQFQGRVSLTRHASWDFDTFSFYMDLKALRSDDTATYFCARQRSDYWDFDVWGSGTQVTVSSASTKGPSVFPLAPSSKSTSGGTAALGCLVKDYFPEPVTVSWNSGALTSGVHTFPAVLQSSGLYSLSSVVTVPSSSLGTQTYICNVNHKPSNTKVDKKVEPKSCDKTHTCPPCPAPELLAGPDVFLFPPKPKDTLMISRTPEVTCVVVDVSHEDPEVKFNWYVDGVEVHNAKTKPREEQYNSTYRVVSVLTVLHQDWLNGKEYKCKVSNKALPLPEEKTISKAKGQPREPQVYTLPPSREEMTKNQVSLTCLVKGFYPSDIAVEWESNGQPENNYKTTPPVLDSDGSFFLYSKLTVDKSRWQQGNVFSCSVLHEALHSHYTQKSLSLSPGK
light: DIQMTQSPSSLSASVGDRVTITCQANGYLNWYQQKPGKAPKLLIYDGSNLETGVPSRFSGSRWGQEYTLTISSLQPEDIATYFCQVYEFVTPGTNLDIKRTVAAPSVFIFPPSDEQLKSGTASVVCLLNNFYPREAKVQWKVDNALQSGNSQESVTEQDSKDSTYSLSSTLTLSKADYEKHKVYACEVTHQGLSSPVTKSFNRGEC
B10: 1.32.36-1 (antibody, human IgG1, kappa)
heavy: QVQLVQSGAEVTKPGASVRVSCEASGYNIRDYFIHWWRQAPGQGLQWVGWINPKTGQPNNPRQFQGRVSLTRHASWDFDTFSFYMDLKALRSDDTAVYFCARQRTDYWDFDVWGSGTQVTVSSASTKGPSVFPLAPSSKSTSGGTAALGCLVKDYFPEPVTVSWNSGALTSGVHTFPAVLQSSGLYSLSSVVTVPSSSLGTQTYICNVNHKPSNTKVDKKVEPKSCDKTHTCPPCPAPELLAGPDVFLFPPKPKDTLMISRTPEVTCVVVDVSHEDPEVKFNWYVDGVEVHNAKTKPREEQYNSTYRVVSVLTVLHQDWLNGKEYKCKVSNKALPLPEEKTISKAKGQPREPQVYTLPPSREEMTKNQVSLTCLVKGFYPSDIAVEWESNGQPENNYKTTPPVLDSDGSFFLYSKLTVDKSRWQQGNVFSCSVLHEALHSHYTQKSLSLSPGK
light: DIQMTQSPSSLSASVGDRVTITCQANGYLNWYQQKPGKAPKLLIYDGSNLETGVPSRFSGSRWGQEYTLTISSLQPEDIATYFCQVYEFVTPGTNLDIKRTVAAPSVFIFPPSDEQLKSGTASVVCLLNNFYPREAKVQWKVDNALQSGNSQESVTEQDSKDSTYSLSSTLTLSKADYEKHKVYACEVTHQGLSSPVTKSFNRGEC

Experiments:
[1] = biological target: HIV gp120 CAAN (HIV); test: single-point ELISA; further: test concentration or dose not given here
[2] = biological target: HIV gp120 Bal (HIV); test: single-point ELISA; further: test concentration or dose not given here

Binder	ELISA (A450) [1] [A450]	ELISA (A450) [2] [A450]
B1	0.77	0.94
B2	0.36	0.89
B3	0.67	0.88
B4	0.88	0.93
B5	0.67	0.85
B6	0.82	0.94
B7	0.71	0.94
B8	0.34	1.12
B9	0.9	1.06
B10	0.64	0.92

Source: US20220089698A1 (published 2022)
